The record followed here is US20220127628A1.

Several values for one entry are separate records, joined by “and”; a condition that tells them apart may be missing. Identical values can stand only once.

The experiment has as its target recombinant NetB (wild type NetB) toxin of C. perfringens (Clostridium perfringens). In words: cell-based or functional assay.

B1: VHH ENB-1A4 (VHH)
VHH: EVQLVESGGGLVQAGGSLRLSCAASGSIFSTNVMGWYRQAPGKQREFVAGITIGGTARYPDSVKGRFTISRDNTQNTVYLQMNNLKPEDTAVYYCNAVLPSDQRRWSWGQGTQVTVSS
For B1, the lowest VHH concentration neutralizing NetB haemolysis is 1.25 µM and 0.625 µM.

B2: VHH ENB-1D11 (VHH)
VHH: EVQLVESGGGLVQTGGSLRLSCTASGTIDMTYGLIWYRQAPGKERELVASIRRDGRTNYADSVKGRFTISIDNAKNSIHLQMNSLKPDDTARYYCNSPYHALWGQGTQVTVSS
For the molecule B2, the lowest VHH concentration neutralizing NetB haemolysis is 1.25 µM and 0.625 µM.
